Consider 5 molecules from patent US20240336683A1 (published 2024).

The target in one test is T1, rcynoSiglec15 His (cyno, UniProt A0A2K5UY47 20-262).
T1 construct: not shown: His tag
T1 sequence: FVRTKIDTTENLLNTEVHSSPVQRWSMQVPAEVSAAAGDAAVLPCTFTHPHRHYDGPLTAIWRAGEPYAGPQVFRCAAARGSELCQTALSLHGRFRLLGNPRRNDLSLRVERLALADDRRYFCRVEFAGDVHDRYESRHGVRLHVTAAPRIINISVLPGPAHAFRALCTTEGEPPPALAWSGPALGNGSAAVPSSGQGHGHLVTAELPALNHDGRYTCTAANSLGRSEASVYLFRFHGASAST
Briefly: ELISA; His-tagged Siglec15 coated, IgG titrated, anti-hFc HRP. The method, then:
(§1) An ELISA assay was developed to determine the EC50 of anti-Siglec15 IgG antibodies. Briefly, a 384 well plate was immobilized with human Siglec 15-HIS tagged recombinant protein at a final concentration of 2 ug/mL in 1×PBS in total volume of 25 uL per well. The plate was incubated overnight at 4° C. followed by blocking with 80 uL of superblock per well for 1 hour. Titration of purified anti-Siglec15 IgG was performed, starting at 200 nM 2-fold serial dilution, then 25 uL was added to the human Siglec15 immobilized wells and incubated for 1 hour with shaking. The Siglec15 binding was detected by adding 25 uL of anti-hFc HRP diluted at 1:5000 in 1×PBST. In between each step, the plate was washed 3 times with 1×PBST in a plate washer. The plate was then developed with 20 ul of TMB substrate for 5 mins and stopped by adding 20 ul of 2N sulfuric acid. The plate was read at OD450 nm Biotek plate reader and then plotted in Prism 8.1 software. Similar binding experiments were done for mouse Siglec15 and cyno Siglec15 to check the cross activity of the IgG antibodies to those two species.
For orientation: An ELISA detects its analyte on a solid surface through an enzyme-linked reagent.

Test [1] deals with T2, human Siglec 15-HIS tagged recombinant protein (human, UniProt Q6ZMC9 20-263).
T2 construct: Recombinant soluble protein; also called rhSiglec15 His; human Siglec15-HIS tagged protein; not shown: HIS tag
T2 sequence (looked up): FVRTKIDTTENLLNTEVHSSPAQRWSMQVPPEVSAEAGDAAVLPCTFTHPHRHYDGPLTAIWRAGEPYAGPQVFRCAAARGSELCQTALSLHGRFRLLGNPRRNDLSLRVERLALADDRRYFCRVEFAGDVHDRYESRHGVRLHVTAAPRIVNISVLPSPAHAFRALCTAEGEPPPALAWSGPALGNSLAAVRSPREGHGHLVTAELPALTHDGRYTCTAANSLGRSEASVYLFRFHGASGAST
The description is as above. The method, then: as §1

The next test concerns the target T3, rmouseSiglec15 His (mouse, UniProt A7E1W8 20-262).
T3 sequence: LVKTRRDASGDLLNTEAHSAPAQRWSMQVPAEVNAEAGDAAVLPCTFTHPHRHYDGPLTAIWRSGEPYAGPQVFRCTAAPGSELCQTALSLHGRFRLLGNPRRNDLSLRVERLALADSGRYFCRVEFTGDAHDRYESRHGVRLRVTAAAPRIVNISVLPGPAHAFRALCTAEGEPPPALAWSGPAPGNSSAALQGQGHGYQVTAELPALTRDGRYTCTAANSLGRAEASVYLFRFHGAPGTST
The description is as above. The protocol:
as §1

The target in test [2] is T4, full-length human Siglec15 with C-terminal flag and Myc tags on HEK293 cells (human, UniProt Q6ZMC9 20-328).
T4 construct: whole, on cells; also called Siglec15/HEK293; HEK293-Siglec 15; not shown: C-terminal flag and Myc tags from pCMV6-Entry vector
T4 sequence (looked up): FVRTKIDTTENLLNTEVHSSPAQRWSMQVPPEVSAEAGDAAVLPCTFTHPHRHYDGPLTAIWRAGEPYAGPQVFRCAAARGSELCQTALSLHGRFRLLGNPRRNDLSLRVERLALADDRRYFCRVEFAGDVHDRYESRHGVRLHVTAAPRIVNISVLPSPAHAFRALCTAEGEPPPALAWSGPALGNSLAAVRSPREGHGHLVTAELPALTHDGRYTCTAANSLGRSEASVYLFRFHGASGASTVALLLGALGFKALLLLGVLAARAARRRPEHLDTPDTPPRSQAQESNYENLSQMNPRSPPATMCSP
Briefly: FACS on Siglec15/HEK293 cells, IgG, anti-hFc Alexa fluor 647.

The target of test [3] is T5, human Siglec15-Fc fusion protein (human, UniProt Q6ZMC9 20-263).
T5 construct: Bought protein (Acro #SG5-H5253 is named for the selection); also called recombinant Siglec 15-Fc fusion protein (Acro #SG5-H5253); human Siglec15-Fc protein; not shown: Fc part of the bought fusion protein
T5 sequence (looked up): T2 sequence (looked up)
Briefly: ELISA; Siglec15-Fc captured by anti-hFc, scFv titrated, anti-Flag HRP. The method, then:
An ELISA assay was developed to determine the EC50 of anti-Siglec15 antibodies. Briefly, a 384 well plate was immobilized with anti-human Fc antibody at final concentration of 2 ug/mL in 1×PBS in total volume of 25 uL per well. The plate was incubated overnight at 4° C. followed by blocking with 80 uL of superblock per well for 1 hour. Human Siglec 15-Fc was captured through immobilized anti-hFc antibody. Purified anti-Siglec 15 scFvs were 2-fold serial titrated from 200 nM. 25 uL was added to human Siglec15 immobilized wells and incubated for 1 hour with shaking. The Siglec15 binding was detected by adding 25 uL of anti-Flag HRP diluted at 1:5000 in 1×PBST. In between each step, the plate was washed 3 times with 1×PBST in a plate washer. The plate was then developed with 20 uL of TMB substrate for 5 mins and stopped by adding 20 uL of 2 N sulfuric acid. The plate was read at OD450 nm Biotek plate reader and then plotted in Prism 8.1 software.

For test [4], the target named is T5, human Siglec15-Fc fusion protein. Briefly: SPR Biacore T200; Siglec15-Fc captured on Protein A chip, scFv as analyte. The protocol: Kinetic analysis of anti-Siglec15 scFvs were assessed by SPR technology with Biacore T200. The assay was run with Biacore T200 control software version 2.0. Protein A sensor chip was used to capture Fc fusion protein in the assay. For each cycle, 1 ug/mL of human Siglec15-Fc protein was captured for 60 seconds at flow rate of 10 ul/min on flow cell 2 in 1× HBSP buffer on Protein A sensor chip. 2-fold serial diluted HIS tag purified anti-Siglec15 scFv was injected onto both reference flow cell 1 and Siglec 15-Fc captured flow cell 2 for 150 seconds at flow rate of 30 ul/min followed by wash for 300 seconds. The flow cells were then regenerated with Glycine pH 2 buffer (GE) for 30 seconds at flow rate of 30 ul/mins. 8 concentration points from 300-0 nM was assayed per anti-Siglec15 scFv in a 96 well plate. The kinetics of scFvs binding to Siglec 15 protein was analyzed with Biacore T200 evaluation software version 3.0. The specific binding response unit was derived from subtraction of binding to reference flow cell 1 from Siglec15 captured flow cell 2.
(Surface plasmon resonance follows binding to a sensor surface in real time, without labels.)

The target in test [5] is T4, full-length human Siglec15 with …. Briefly: FACS on Siglec15/HEK293 cells, scFv, anti-His detection. The method, then:
[…] Cells were spun down at 1200 rpm for 5 minutes at 4° C. to remove primary antibodies. Cells were then washed once with 200 uL of full medium per well. Samples were detected with premixed anti-His Biotin Streptavidin Alexa fluor 647 by adding 100 uL of diluted secondary antibody and incubated at 4° C. for 30 minutes in the dark. Samples were spun down at 1200 rpm for 5 minutes at 4° C. and washed twice with 200 uL of 1×PBS per well. Samples were then reconstituted in 200 uL of 1×PBS and read on Attune NxT cytometer. Analysis was performed using Attune NxT software plotting the overlaying the histogram of anti-Siglec15 scFvs binding onto both negative and target cell lines.

Test [6] has as its target T2, human Siglec 15-HIS tagged recombinant …. Briefly: SPR Biacore T200; IgG captured on Protein A chip, Siglec15-HIS as analyte. The protocol:
Kinetic analysis of anti-Siglec15 IgG was assessed by SPR technology with Biacore T200. The assay was run with Biacore T200 control software version 2.0. For each cycle, 1 ug/mL of anti-Siglec15 IgG was captured for 60 seconds at flow rate of 10 ul/min on flow cell 2 in 1× HBSP buffer on Protein A sensor chip. 2-fold serial human Siglec15-HIS tagged protein was injected onto both reference flow cell 1 and anti-Siglec15 IgG captured flow cell 2 for 150 seconds at flow rate of 30 ul/mins followed by wash for 300 seconds. The flow cells were then regenerated with Glycine pH2 for 60 seconds at flow rate of 30 ul/mins. 8 concentration points from 100-0 nM were assayed per anti-Siglec15 IgG in a 96 well plate. The kinetics of Anti-Siglec15 IgG binding to Siglec 15 protein was analyzed with Biacore T200 evaluation software version 3.0. The specific binding response unit was derived from subtraction of binding to reference flow cell 1 from antibody captured flow cell 2.

B1: 2020EP032-H11 IgG (antibody, V domains shown)
VH: EVQLVESGGGLVKPGGSLRLSCAASGFTFSSYSMNWVRQAPGKGLEWVSSISSSSSYIYYADSVKGRFTISRDNAKNSLYLQMNSLRAEDTAVYYCARDYRGYSGQNYYGMDVWGQGTTVTVSS
VL: QSALTQPPSVSAAPRQKVTISCSGSSSNIGNNDVSWYQQLPGTVPKLLIYDNNKRPSGIPDRFSGSKSGTSASLGITGLQTGDEADYYCGVWDSSLSGYVFGTGTKVTVL
notes: IgG form expressed in ExpiHEK293-F cells; detected with anti-hFc; also called 2020EP32-H11; H11 mAb
By EC50 is commonly meant the concentration that produces a half-maximal response. As to B1, the EC50 in the test with rcynoSiglec15 His is 25.8 pM; in test [1], 22.8 pM; with rmouseSiglec15 His, 10.5 pM; in test [2], 22 pM.

B2: 2020EP032-H11 scFv (scFv, V domains shown)
VH: B1 VH
VL: B1 VL
notes: Tested as a single-chain scFv made in E. coli with a C-terminal flag and 6x His tag
One may read the Kd as a measure of binding affinity in units of concentration. By koff is commonly meant the rate constant with which the complex falls apart. Usually kon stands for the rate constant with which the complex forms. A low value points to slower complex formation. Regarding B2, it took 567 pM to reach a half-maximal effect in test [3] (EC50). For the same molecule, in test [4], the dissociation constant Kd worked out at 557 pM, the koff was found to be 0.000316 s⁻¹ and the kon was 567000 M⁻¹ s⁻¹. In addition, the EC50 in test [5] was 10600 pM.

B3: 2019EP47-A02 IgG (antibody, V domains shown)
VH: EVQLVQSGGGVVQPGRSLRLSCAASGFTFSSYAMHWVRQAPGKGLEWVAVISYDGSNKYYADSVKGRFTISRDNSKNTLYLQMNSLRAEDTAVYYCARSRYSSSLRRYYGMDVWGQGTTVTVSS
VL: AIQLTQSPSSLSASVGDRVTITCQATHDIANYLNWYQQKPGKAPKLLIYAASNLETGVPSRFSGSGSGTDFTFAISSLQPEDIAVYYCQQYDNLPLTFGGGTKVEIK
notes: IgG form expressed in ExpiHEK293-F cells; detected with anti-hFc
For the molecule B3, the EC50 in test [1] was determined as 28.9 pM. For the same molecule, in test [6], the Kd is 2400 pM and the koff came to 0.000311 s⁻¹. In test [2], this molecule returned an EC50 of 350 pM.

B4: 2020EP032-B03 IgG (antibody, V domains shown)
VH: QVQLQQWGAGLLKPSETLSLTCAVYGGSFSGYYWSWIRQPPGKGLEWIGEINHSGSTNYNPSLKSRVTISVDTSKNQFSLKLSSVTAADTAVYYCARGPLRKYYDFWSGSRNYYYYGMDVWGQGTTVTVSS
VL: QPVLTQDPAVSVALGQTVRITCQGDSLRSNYASWYQLKPGQAPVLVIYDKNNRPSGIPDRFSGSNSGNTASLTIAGAQAEDEADYYCTSRDSSGTVFGGGTKLTVL
notes: IgG form expressed in ExpiHEK293-F cells; detected with anti-hFc; also called 2020EP32-B03
Consider B4, for which the EC50 with rcynoSiglec15 His turned out to be 1210 pM; in test [1], 527 pM; with rmouseSiglec15 His, 248 pM; in test [2], 1920 pM.

B5: 2019EP47-A10 IgG (antibody, V domains shown)
VH: QMQLVQSGGGVVQPGRSLRLSCAASGFTFSSYGMHWVRQAPGKGLEWVAVISYDGSNKYYADSVKDRFTISRDNSKNTLYLQMNSLRAEDTAVYYCAKDIVGDSGSYPIYYYYGMDVWGQGTTVTVSS
VL: SQSALTQPHSVSESPGKTVTISCTRSSGSIASNYVQWYQQRPGSAPSTVIYEDNQRPSGVPDRFSGSVDISSNSASLTISGLQTEDEADYYCQSYDNDNMVFGGGTKLTVL
notes: as for B3
For the molecule B5, the EC50 came to 171 pM with rcynoSiglec15 His, 119 pM in test [1] and 109 pM with rmouseSiglec15 His. For the same molecule, the Kd in test [6] came to 3800 pM. Moreover, in test [6], the koff was determined as 0.000368 s⁻¹.
